# ± gives the uncertainty stated by the source.
# B1: Zinc finger MYM-type protein 6, residues 427 to 504; numbered along this chain, O95789 (parent)
# chain: KLKCQHCNHLFATKPELLFYKGKMFLFCGKNCSDEYKKKNKVVAMCDYCKLQKIIKETVRFSGVDKPFCSEVCKFLSA
# Variants of: B1
# Assay: abundance fitness (aPCA) (normalised: wild type 0, dead -1); higher = more abundant; growth selection in yeast, the domain comes from the species named
# Conditions: Homo sapiens
row,Variant,abundance fitness
1,KLKCQHCNHLFATKPELLFYKGKMFLFCGKNCMDEYKKKNKVVAMCDYCKLQKIIKETVRFSGVDKPFCSEVCKFLSA [S33M],-0.042 ± 0.037
2,KLKCQHCNHLFATKPELLFYKGKMFLFCGKNCPDEYKKKNKVVAMCDYCKLQKIIKETVRFSGVDKPFCSEVCKFLSA [S33P],-0.343 ± 0.045
3,KLKCQHCNHLFATKPELLFYKGKMFLFCGKNCQDEYKKKNKVVAMCDYCKLQKIIKETVRFSGVDKPFCSEVCKFLSA [S33Q],0.017 ± 0.053
4,KLKCQHCNHLFATKPELLFYKGKMFLFCGKNCRDEYKKKNKVVAMCDYCKLQKIIKETVRFSGVDKPFCSEVCKFLSA [S33R],-0.061 ± 0.03
5,KLKCQHCNHLFATKPELLFYKGKMFLFCGKNCTDEYKKKNKVVAMCDYCKLQKIIKETVRFSGVDKPFCSEVCKFLSA [S33T],-0.127 ± 0.056
6,KLKCQHCNHLFATKPELLFYKGKMFLFCGKNCVDEYKKKNKVVAMCDYCKLQKIIKETVRFSGVDKPFCSEVCKFLSA [S33V],-0.054 ± 0.03
7,KLKCQHCNHLFATKPELLFYKGKMFLFCGKNCWDEYKKKNKVVAMCDYCKLQKIIKETVRFSGVDKPFCSEVCKFLSA [S33W],-0.114 ± 0.043
8,KLKCQHCNHLFATKPELLFYKGKMFLFCGKNCYDEYKKKNKVVAMCDYCKLQKIIKETVRFSGVDKPFCSEVCKFLSA [S33Y],-0.14 ± 0.4
9,KLKCQHCNHLFATKPELLFYKGKMFLFCGKNCSAEYKKKNKVVAMCDYCKLQKIIKETVRFSGVDKPFCSEVCKFLSA [D34A],-0.037 ± 0.029
10,KLKCQHCNHLFATKPELLFYKGKMFLFCGKNCSEEYKKKNKVVAMCDYCKLQKIIKETVRFSGVDKPFCSEVCKFLSA [D34E],-0.033 ± 0.036
11,KLKCQHCNHLFATKPELLFYKGKMFLFCGKNCSGEYKKKNKVVAMCDYCKLQKIIKETVRFSGVDKPFCSEVCKFLSA [D34G],-0.078 ± 0.029
12,KLKCQHCNHLFATKPELLFYKGKMFLFCGKNCSLEYKKKNKVVAMCDYCKLQKIIKETVRFSGVDKPFCSEVCKFLSA [D34L],-0.14 ± 0.038
13,KLKCQHCNHLFATKPELLFYKGKMFLFCGKNCSMEYKKKNKVVAMCDYCKLQKIIKETVRFSGVDKPFCSEVCKFLSA [D34M],-0.091 ± 0.055
14,KLKCQHCNHLFATKPELLFYKGKMFLFCGKNCSNEYKKKNKVVAMCDYCKLQKIIKETVRFSGVDKPFCSEVCKFLSA [D34N],-0.527 ± 0.28
15,KLKCQHCNHLFATKPELLFYKGKMFLFCGKNCSPEYKKKNKVVAMCDYCKLQKIIKETVRFSGVDKPFCSEVCKFLSA [D34P],-0.691 ± 0.084
16,KLKCQHCNHLFATKPELLFYKGKMFLFCGKNCSQEYKKKNKVVAMCDYCKLQKIIKETVRFSGVDKPFCSEVCKFLSA [D34Q],-0.034 ± 0.048
17,KLKCQHCNHLFATKPELLFYKGKMFLFCGKNCSREYKKKNKVVAMCDYCKLQKIIKETVRFSGVDKPFCSEVCKFLSA [D34R],-0.068 ± 0.032
18,KLKCQHCNHLFATKPELLFYKGKMFLFCGKNCSSEYKKKNKVVAMCDYCKLQKIIKETVRFSGVDKPFCSEVCKFLSA [D34S],-0.056 ± 0.041

row,Variant,abundance fitness
1,KLKCQHCNHLFATKPELLFYKGKMFLFCGKNCSTEYKKKNKVVAMCDYCKLQKIIKETVRFSGVDKPFCSEVCKFLSA [D34T],-0.133 ± 0.079
2,KLKCQHCNHLFATKPELLFYKGKMFLFCGKNCSVEYKKKNKVVAMCDYCKLQKIIKETVRFSGVDKPFCSEVCKFLSA [D34V],-0.017 ± 0.032
3,KLKCQHCNHLFATKPELLFYKGKMFLFCGKNCSWEYKKKNKVVAMCDYCKLQKIIKETVRFSGVDKPFCSEVCKFLSA [D34W],-0.156 ± 0.035
4,KLKCQHCNHLFATKPELLFYKGKMFLFCGKNCSDAYKKKNKVVAMCDYCKLQKIIKETVRFSGVDKPFCSEVCKFLSA [E35A],-0.024 ± 0.029
5,KLKCQHCNHLFATKPELLFYKGKMFLFCGKNCSDCYKKKNKVVAMCDYCKLQKIIKETVRFSGVDKPFCSEVCKFLSA [E35C],-0.402 ± 0.46
6,KLKCQHCNHLFATKPELLFYKGKMFLFCGKNCSDDYKKKNKVVAMCDYCKLQKIIKETVRFSGVDKPFCSEVCKFLSA [E35D],-0.047 ± 0.064
7,KLKCQHCNHLFATKPELLFYKGKMFLFCGKNCSDGYKKKNKVVAMCDYCKLQKIIKETVRFSGVDKPFCSEVCKFLSA [E35G],-0.007 ± 0.028
8,KLKCQHCNHLFATKPELLFYKGKMFLFCGKNCSDLYKKKNKVVAMCDYCKLQKIIKETVRFSGVDKPFCSEVCKFLSA [E35L],-0.096 ± 0.042
9,KLKCQHCNHLFATKPELLFYKGKMFLFCGKNCSDMYKKKNKVVAMCDYCKLQKIIKETVRFSGVDKPFCSEVCKFLSA [E35M],-0.054 ± 0.033
10,KLKCQHCNHLFATKPELLFYKGKMFLFCGKNCSDPYKKKNKVVAMCDYCKLQKIIKETVRFSGVDKPFCSEVCKFLSA [E35P],-0.331 ± 0.051
11,KLKCQHCNHLFATKPELLFYKGKMFLFCGKNCSDQYKKKNKVVAMCDYCKLQKIIKETVRFSGVDKPFCSEVCKFLSA [E35Q],-0.082 ± 0.06
12,KLKCQHCNHLFATKPELLFYKGKMFLFCGKNCSDRYKKKNKVVAMCDYCKLQKIIKETVRFSGVDKPFCSEVCKFLSA [E35R],-0.021 ± 0.03
13,KLKCQHCNHLFATKPELLFYKGKMFLFCGKNCSDTYKKKNKVVAMCDYCKLQKIIKETVRFSGVDKPFCSEVCKFLSA [E35T],-0.127 ± 0.092
14,KLKCQHCNHLFATKPELLFYKGKMFLFCGKNCSDVYKKKNKVVAMCDYCKLQKIIKETVRFSGVDKPFCSEVCKFLSA [E35V],-0.07 ± 0.035
15,KLKCQHCNHLFATKPELLFYKGKMFLFCGKNCSDWYKKKNKVVAMCDYCKLQKIIKETVRFSGVDKPFCSEVCKFLSA [E35W],-0.11 ± 0.038
16,KLKCQHCNHLFATKPELLFYKGKMFLFCGKNCSDYYKKKNKVVAMCDYCKLQKIIKETVRFSGVDKPFCSEVCKFLSA [E35Y],-0.108 ± 0.098
17,KLKCQHCNHLFATKPELLFYKGKMFLFCGKNCSDEAKKKNKVVAMCDYCKLQKIIKETVRFSGVDKPFCSEVCKFLSA [Y36A],-0.074 ± 0.03
